Assay results published in paper doi:10.1101/2022.01.30.478305 (bioRxiv, 2022).

Target: SARS-CoV-2 RBD-his (SARS-CoV-2, UniProt P0DTC2)
Experiment: ELISA

B1: 16L9 (antibody, V domains shown)
VH: EVQLVESGGGLIQPGGSLRLSCAASGFTVSSNYMSWVRQAPGKGLEWVSVIYSGGSTYYADSVKGRFTISRDNSENTLYLQMNSLRAEDTAVYYCARGEIQPYYYYGMDVWGQGTTVTVSS
VL: QSVLTQPPSASGSPGQSVTISCTGTSSDFGGYNSVSWYQQHPGKAPKLMIYEVSKRPSGVPDRFSGSKSGNTASLTVSGLQAEDEADYYCSSYAGSNNFDVFGTGTKVTVL
  binding result: binds
